These results are taken from patent US12648996B2, “RNA aptamers and uses thereof” (UNIVERSITY OF MIAMI, priority 2019, dated 2026).

One data set concerns 4T1 mammary carcinoma. In words: Therapeutic efficacy and toxicity in 4T1 bearing BALB/c mice. The format is in vivo, mouse. The method, then: FIGS. 7A-7C. TIMC-specific aptamers increase doxorubicin therapeutic index. […] Treatment was repeated 2 and 6 days later. […] Weight loss as measure of toxicity is reported. […] Survival was monitored.
Aptamer-Doxorubicin treatment: Aptamer-doxorubicin was prepared by making DNA template with the appropriate aptamer followed by a GC-rich primer sequence downstream (GC rich Sul3′, FIG. 11. From this template, RNA was transcribed and purified as described above. Doxorubicin (Sigma) was mixed with the RNA sequence as needed. Doxil (ALZA corporation) was purchased through the University of Miami pharmacy.
BALB/c mice were injected IV with the 4T1 luciferase thy1.1 tumor cell line. Treatment was started when tumors reached 5 mm of diameter and repeated 2 and 6 days later. Tumor growth and mice weight was reported. Mice were evaluated at least 3 times a week and humanely euthanized when tumor size index reached 150 mm^2 or if they lose >20% of initial weight due to chemotherapy or tumor growth in compliance with the IACUC policy and animal protocol. Data are expressed as tumor size index defined as the product of the main diameter with the perpendicular one.
Next, the therapeutic efficacies of doxorubicin delivered by TIMC-specific aptamers was compared by PEGylated liposomes (Doxil, the first clinically available nanoparticle that became the gold standard for doxorubicin treatment (34, 35)), and as unconjugated molecules. Briefly, 4T1 bearing BALB/c mice were treated with unconjugated DOX at dose high, or low dose, or with low doses of DOX conjugated to the TIMC-specific aptamer, or with Doxil (low dose—0.35 mg/kg). Treatment was repeated 2 and 6 days later. As additional controls, mice were treated with unconjugated aptamers, irrelevant aptamers conjugated with doxorubicin, or left untreated.

The subject of data set [1] is tumor infiltrating myeloid cells (4T1 tumor). In words: Flow cytometry of Cy3-labelled monoclonal aptamers on single cell suspensions from tumor and spleen of 4T1 bearing mice. The format is cell-based, mouse. The settings on record: tumor and spleen of 4T1 challenged mice; splenic MDSCs and CD11b- cells p>0.05. From the text: FIGS. 2A-C. […] FIG. 2A) Single cell suspensions from spleens and tumors of mice pooled from 3 mice bearing the 4T1 tumor (0.5 cm in diameter) were labelled with antibodies against CD11b, Ly6C, Ly6G and the 15 Cy3-labelled monoclonal aptamers identified by APTANI. Data derived from n=5 biological replica and derived from n=2 independent experiments. Aptamers 3 (SEQ ID NO: 3), 6 (SEQ ID NO: 6), 11 (SEQ ID NO: 11), and 14 (SEQ ID NO: 14) were chosen for further analysis and are in bold. *=P<0.001 by one-way ANOVA and post-hoc Holm-Sidak comparisons versus irrelevant aptamer. […] FIG. 2B) Secondary structure of aptamers 3 (SEQ ID NO: 3), 6 (SEQ ID NO: 6), 11 (SEQ ID NO: 11), and 14 (SEQ ID NO: 14). Binding motifs identified by APTANI are underlined in black. Fluorinated nucleotides are highlighted in gray. FIG. 2C) An equimolar mixture of the aptamers increases the specificity for tumor infiltrating myeloid cells. Pooled single cell suspension of tumor or spleen from 4T1 bearing mice were labeled with aptamers 3 (SEQ ID NO: 3), 6 (SEQ ID NO: 6), 11 (SEQ ID NO: 11), and 14 (SEQ ID NO: 14), or equimolar mixtures of each aptamer and analyzed by FACS. Data derived from n=3 independent experiments.
(§1) Flow cytometry: Aptamers were labeled with Cy3 using the Silencer siRNA Labeling Kit—Cy3 (Ambion) and 37 pmoles were used to label 5×10^6 cells unless otherwise specified. In some experiments biotinylated aptamers were labelled with streptavidin conjugated with Alexa Fluor 647 or Alexa Fluor 750 and purified from unbound aptamer by Ultra-4 centrifugal filters, […] (Millipore).
(§2) Dead cells were excluded by the analysis by using 4′,6′-diamidino-2-phenylindole (DAPI; Sigma) or Live/Dead dye (Invitrogen). Samples were read on a LSR2 equipped with 405 nm, 488 nm, 532 nm, and 635 nm lasers (BD Bioscience). Data were analyzed using FCS6 express software (Denovo-Software).
These 15 aptamers were tested by flow cytometry against single cell suspensions from tumor and spleen of mice challenged with the 4T1 tumor (FIG. 2A).
Next, whether an equimolar mixture of aptamers 3, 6, 11 and 14 was more efficient in recognizing TIMC as compared to each individual aptamer was evaluated.
In general terms: Flow cytometry measures light scatter and fluorescence of single cells or particles in a stream.

In data set [2] the test system is TIMC from 4T1, CT26, RENCA, B16LU8, MCA203, E0771 tumors. As to the kind of experiment: Staining of single cell suspensions from tumor, bone marrow, spleen and lungs in multiple mouse tumor models. The format is cell-based. The settings on record: BALB/c (4T1, CT26, RENCA) and C57Bl/6 (B16LU8, MCA203, E0771) tumor models.
From the text: as §1, §2
The binding properties of monoclonal RNA aptamers 3, 6, 11 and 14 were evaluated in other tumor models. Aptamers 3, 6, 11, or 14 single cell suspensions were stained from tumor, bone marrow, spleen, and lungs of BALB/c mice bearing the 4T1 mammary carcinoma, the CT26 colon carcinoma, or the RENCA renal carcinoma. Similar analysis was performed on single cell suspensions from C57Bl/6 mice bearing B16LU8 melanoma, MCA203 fibrosarcoma or E0771 mammary carcinoma.

For data set [3], the system named is 4T1 tumors and tissues arrays from naïve mice. As to the kind of experiment: Immunofluorescence microscopy on 4T1 tumors and tissues arrays from naïve mice. Details: species or system mouse. The method, then:
Immunofluorescence microscopy and Image cytometry: Fresh frozen tissue and tissues microarrays (AMSBIO) were fixed in 10% neutral-buffered formalin (BDH) for 15′ at RT, incubated with dextran sulfate sodium/PBS (1:2 m/V—Pharmacia biotech) for 30′ and washed with PBS. Tissues were then stained with Cy3-labelled aptamer (10 ug/ml) in PBS for 30′, masked with 2% BSA, and counterstained with antibodies and/or DAPI.
Specificity was further evaluated by immunofluorescence microscopy using 4T1 tumors and tissues arrays from naïve mice.

Data set [4] can be described thus: Aptamer-based immunoprecipitation and mass spectrometry (target identification). Particulars: immunoprecipitation, mass spectrometry. The procedure:
(§3) FIG. 4A-4E. Characteristics of aptamers that preferentially recognize tumor infiltrating myeloid cells. FIG. 4A) Affinity of the aptamers for IL4 treated MSC2 cells was determined by FACS. Putative targets (ANXA4 and VIM) were identified via aptamer-based immunoprecipitation, SDS page, and mass spec analysis. Kds against ligands was determined by FACS against recombinant protein conjugated to epoxy beads. FIG. 4B) Epoxy beads conjugated with ANXA4 or irrelevant protein were stained with Cy3-labelled aptamer 3 or irrelevant aptamer and analyzed by FACS. FIG. 4C) Epoxy beads conjugated with vimentin or irrelevant protein were stained with Cy3-labelled aptamer 11 or irrelevant aptamer and analyzed by FACS. FIG. 4D) ANXA4 competitive assay. 5×10^5 IL4 treated MSC2 were stained with aptamer 3 in the presence or in the absence of recombinant ANXA4. FIG. 4E) MCS2 cells were transfected via the 4PD nanoparticle with shRNA against vimentin or with a scrambled shRNA. 4 days later cells were stained with Cy3-labelled aptamer 11 and DAPI. Pa=One-way ANOVA p value. Data derived from n=2 independent experiments.
The specificity of aptamer 3 for ANXA4 and aptamer 11 for vimentin were tested by competitive experiments (FIG. 4D) and with validated shRNA (29) (FIG. 4E), respectively.

For a further data set, the target named is T1, annexin A4 (ANXA4) (Mus musculus, UniProt P97429).
T1 construct: purchased myBiosource
T1 sequence (P97429 1-319): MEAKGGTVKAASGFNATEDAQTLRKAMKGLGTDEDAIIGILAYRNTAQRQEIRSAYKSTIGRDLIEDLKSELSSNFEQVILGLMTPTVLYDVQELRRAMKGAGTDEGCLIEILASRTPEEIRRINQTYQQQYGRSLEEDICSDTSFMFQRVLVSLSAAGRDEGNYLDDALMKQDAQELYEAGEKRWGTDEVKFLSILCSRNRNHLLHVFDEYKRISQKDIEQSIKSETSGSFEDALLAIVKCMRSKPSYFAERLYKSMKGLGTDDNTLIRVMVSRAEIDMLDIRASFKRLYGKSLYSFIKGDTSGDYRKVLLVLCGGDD
In words: FACS of epoxy beads conjugated with recombinant ANXA4. Particulars: beads loaded with relevant or irrelevant recombinant proteins. The format is binding. The method, then:
as §3
(§4) FIG. 8A and FIG. 8B. Affinity of aptamers #3 (SEQ ID NO: 3), #6 (SEQ ID NO: 6), #11 (SEQ ID NO: 11) and #14 (SEQ ID NO: 14) for IL4 treated MSC2 or their putative ligand. […] Binding was evaluated by FACS. […] Binding was evaluated by FACS. […]

The target of another data set is T2, vimentin (VIM) (Mus musculus, UniProt P20152).
T2 construct: purchased myBiosource
As to the kind of experiment: FACS of epoxy beads conjugated with recombinant vimentin. Particulars: beads loaded with relevant or irrelevant recombinant proteins. The format is binding. The procedure:
as §3, §4

T2 sequence (P20152 whole entry): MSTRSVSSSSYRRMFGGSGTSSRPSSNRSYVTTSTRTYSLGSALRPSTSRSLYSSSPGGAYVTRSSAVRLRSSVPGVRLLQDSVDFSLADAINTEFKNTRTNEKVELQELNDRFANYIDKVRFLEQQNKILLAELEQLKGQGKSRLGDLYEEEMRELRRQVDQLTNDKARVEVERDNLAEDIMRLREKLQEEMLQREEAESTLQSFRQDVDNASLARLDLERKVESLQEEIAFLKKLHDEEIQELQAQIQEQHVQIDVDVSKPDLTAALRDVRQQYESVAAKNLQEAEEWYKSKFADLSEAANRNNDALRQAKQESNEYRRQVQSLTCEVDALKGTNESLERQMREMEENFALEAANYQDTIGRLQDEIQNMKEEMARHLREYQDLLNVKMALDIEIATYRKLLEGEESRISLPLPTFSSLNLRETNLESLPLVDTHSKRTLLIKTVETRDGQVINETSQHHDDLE

Take `COc1cccc2c1C(=O)c1c(O)c3c(c(O)c1C2=O)C[C@@](O)(C(=O)CO)C[C@@H]3O[C@H]1C[C@H](N)[C@H](O)[C@H](C)O1` [free doxorubicin, doxorubicin]: the “toxicity (body weight loss)” value with 4T1 mammary carcinoma (free DOX high dose 3.5 mg/kg, DOX-aptamer 0.35 mg/kg) is “significant body weight loss”. This molecule also yielded a treatment related mortality with 4T1 mammary carcinoma (high doses of free doxorubicin) of 15%. The anti-tumor effect entry in the data set with 4T1 mammary carcinoma (i.v., repeated 2 and 6 days later, free DOX high dose 3.5 mg/kg, Doxil and DOX-aptamer low dose 0.35 mg/kg) was “No significant anti-tumor effect”.

B1: aptamer 3: 2'Fluoro-RNA aptamer, SEQ ID NO: 3, specific for tumor infiltrating myeloid cells; ligand ANXA4 (nucleic acid)
chain: GGAGGACGAUGCGGAUUACCAACUUGAACGCCGAGAGUGUGGUCACGUGUUCUGCAGACGACUCGCUGAGGAUCCGAGA
modifications: 2'-fluoro modified RNA, modified positions not given here, Cy3-labelled for binding assays
notes: ligand ANXA4
For the molecule B1, the “specificity for tumor infiltrating vs splenic myeloid cells” value (shortened to “specificity … vs splenic myeloid cells”) in data set [1] is on record as “specific for tumor infiltrating myeloid cells”. Moreover, the “recognition of TIMC” value in data set [2] is “able to recognize TIMC”. The “staining of tissues from naïve mice” value in data set [3] is recorded as “recognized hepatocytes at low intensity”. Moreover, the putative target entry in data set [4] is reported as “annexin A4 (ANXA4 isoform X1 P97495)”. In addition, in the data set with annexin A4 (ANXA4), the “specificity for annexin protein” value is given as “confirmed the specificity”.

B2: aptamer 11: 2'Fluoro-RNA aptamer, SEQ ID NO: 11, specific for tumor infiltrating myeloid cells; ligand vimentin (nucleic acid)
chain: GGAGGACGAUGCGGGGAAGCAACACUUAGUCGCGAUUGAUACGUGCGCAGUCAUCAGACGACUCGCUGAGGAUCCGAGA
modifications: 2'-fluoro modified RNA, modified positions not given here, Cy3-labelled for binding assays
notes: ligand vimentin
Consider B2, for which the “specificity … vs splenic myeloid cells” value in data set [1] is listed as “specific for tumor infiltrating myeloid cells”. The “recognition of TIMC” value in data set [2] is “able to recognize TIMC”. In data set [4], the putative target result is “vimentin (VIM P20152)”. In the data set with vimentin (VIM), the “specificity for vimentin protein” value was “confirmed the specificity”.

B3: aptamer 14: 2'Fluoro-RNA aptamer, SEQ ID NO: 14, specific for tumor infiltrating myeloid cells (nucleic acid)
chain: GGAGGACGAUGCGGUGUACACUGAUUGCCUUUGUGUUAUGAGCGACAGAUCUGCCAGACGACUCGCUGAGGAUCCGAGA
modifications: 2'-fluoro modified RNA, modified positions not given here, Cy3-labelled for binding assays
In the case of B3, in data set [1], the “specificity … vs splenic myeloid cells” value is “specific for tumor infiltrating myeloid cells”. Also, the “recognition of TIMC” value in data set [2] was “able to recognize TIMC”. In addition, in data set [3], the “staining of tissues from naïve mice” value is “recognized intestinal villi and seems to show a nuclear staining of cerebellum, pancreatic acinar tissue, stomach and spleen”. In addition, the putative target entry in data set [4] is “No targets have been identified”.

B4: aptamer 6: 2'Fluoro-RNA aptamer, SEQ ID NO: 6, specific for tumor infiltrating myeloid cells (nucleic acid)
chain: GGAGGACGAUGCGGCAGGUGCGGGAUCUAAUGCGUAGACAGCCAUAUACUGACACAGACGACUCGCUGAGGAUCCGAGA
modifications: 2'-fluoro modified RNA, modified positions not given here, Cy3-labelled for binding assays
As for B4, the “specificity … vs splenic myeloid cells” value in data set [1] is on record as “specific for tumor infiltrating myeloid cells”. In data set [2], the “recognition of TIMC” value is recorded as “able to recognize TIMC”. In data set [3], the “staining of tissues from naïve mice” value is “showed binding for epithelial cells in the uterus and low binding for pancreatic acinar tissue”. Further, the putative target entry in data set [4] was “No targets have been identified”.
